According to patent US20220396794, “[…] AGAINST TRANSFERRIN RECEPTOR (TfR)” (APTERNA LIMITED, published 2022):

B1: TR14 ST1-3 (22-nt) (ssRNA)
RNA: UUUAUUCACAUUUUUGAAUUGA
modifications: 2'-F pyrimidines (rule of the parent selection)
B2: TR14 S1 (46-nt) (ssRNA)
RNA: GGGGCUCAAUGCGUUCACGUUUAUUCACAUUUUUGAAUUGAGCAUG
modifications: 2'-F pyrimidines (rule of the parent selection)
B3: TR14 ST1-2 (32-nt) (ssRNA)
RNA: AAUGCGUUCACGUUUAUUCACAUUUUUGAAUU
modifications: 2'-F pyrimidines (rule of the parent selection)
B4: TR14 ST1-1 (40-nt) (ssRNA)
RNA: GCUCAAUGCGUUCACGUUUAUUCACAUUUUUGAAUUGAGC
modifications: 2'-F pyrimidines (rule of the parent selection)

Legend:
[1] = target: T1, Transferrin receptor 1 (hTfR/hTFRC) extracellular domain (Homo sapiens, UniProt P02786 SEQ:89-760); assay: SPR; 30 mM Tris pH 7.5, 150 mM NaCl, 5 mM MgCl2; aptamer immobilised; details: tags: N-terminal His6; expressed in HEK293; Sino Biological 11020-H07H; chain copies: 2 (inferred); label: biotin (SPR) or Cy3 (cells)
Description: (§1) Surface plasmon resonance-based biosensor assay. The Biacore T100 (GE Healthcare, Uppsala, Sweden) was used to monitor label-free interactions of truncated TR14-hTfR1 in real time. The biotinylated aptamer was coupled to a streptavidin-coated Biacore chip (SensorChip SA, BR-1003-98, General Electric Company) by an injection in binding buffer at a concentration of 25 μg/mL (30 mM Tris-HCl, pH 7.5; 150 mM NaCl; 5 mM MgCl₂) at 10 uL/min. The RNA was refolded by heating to 65° C., followed by cooling to 37° C., before immobilization. To measure binding kinetics, five concentrations of purified hTfR1 protein were injected at a flow rate of 10 uL/min. After binding, the surface was regenerated by injecting 50 mM NaOH at a flow rate of 15 μL/min for 20 s. Data from the control surface were subtracted. BIAevaluation software (GE Healthcare) was used for analysis. The binding data was fit to a 1:1 binding with a mass transfer model to calculate kinetics parameters as previously described (Hernandez et al, 2009; Soontornworajit et al, 2011)

[2] = target: T1, Transferrin receptor 1 (hTfR/hTFRC) …; assay: SPR; not measurable; details: tags: N-terminal His6; expressed in HEK293; Sino Biological 11020-H07H; chain copies: 2 (inferred); label: biotin (SPR) or Cy3 (cells)
Description: as §1

T1 sequence (P02786 89-760): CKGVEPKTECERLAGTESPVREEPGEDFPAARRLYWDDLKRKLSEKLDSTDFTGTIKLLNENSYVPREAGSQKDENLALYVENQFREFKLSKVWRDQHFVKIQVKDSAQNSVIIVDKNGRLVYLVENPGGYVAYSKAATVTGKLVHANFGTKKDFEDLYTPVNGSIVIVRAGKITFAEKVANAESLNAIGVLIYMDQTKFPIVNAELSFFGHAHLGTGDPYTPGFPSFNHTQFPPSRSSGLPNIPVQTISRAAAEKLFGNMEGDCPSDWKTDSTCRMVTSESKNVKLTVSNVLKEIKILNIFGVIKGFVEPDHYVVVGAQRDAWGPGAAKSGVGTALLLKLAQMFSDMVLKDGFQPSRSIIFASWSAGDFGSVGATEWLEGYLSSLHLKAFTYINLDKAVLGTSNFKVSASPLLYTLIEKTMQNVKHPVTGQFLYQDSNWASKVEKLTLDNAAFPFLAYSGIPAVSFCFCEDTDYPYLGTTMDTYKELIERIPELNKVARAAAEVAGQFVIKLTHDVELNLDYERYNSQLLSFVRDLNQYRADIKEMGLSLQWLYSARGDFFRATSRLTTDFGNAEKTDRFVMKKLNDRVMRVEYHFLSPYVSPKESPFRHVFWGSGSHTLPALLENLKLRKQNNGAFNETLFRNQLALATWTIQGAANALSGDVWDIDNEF

Binder	Kd [1]	binding result [2]
B1	0.022 nM	
B2	1.46 nM	
B3		no binding
B4		no binding
